In paper PMC10326071:

Biological target: middle domain of human Paip1 (Paip1M) (human) (UniProt Q9H074)
Test: BLI; […]; 1x PBS pH 7.4, 0.1% surfactant P20, 0.1% BSA, 500 mM NaCl; 25 C; global fit, 1:1 model

middle domain of human Paip1 (Paip1M) (human), sequence (Q9H074 157-375): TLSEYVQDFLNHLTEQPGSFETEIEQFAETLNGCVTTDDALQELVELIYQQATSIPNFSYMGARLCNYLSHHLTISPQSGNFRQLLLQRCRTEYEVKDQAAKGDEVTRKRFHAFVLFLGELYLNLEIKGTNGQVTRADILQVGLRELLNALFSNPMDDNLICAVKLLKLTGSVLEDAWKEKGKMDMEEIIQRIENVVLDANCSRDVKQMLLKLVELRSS

SARS-CoV-2 SUD-core-CC (domain or fragment)
Kd: 7.2 µM
